Data reported in paper PMC4452343, “Monitoring β-arrestin recruitment via β-lactamase enzyme fragment complementation: purification of peptide E as a low-affinity ligand for mammalian bombesin receptors” (PLoS ONE, 2015).

Columns and labels:
[1] = target: human bombesin receptor subtype 3 (human) (UniProt P32247)
[2] = target: neuromedin B receptor (human) (UniProt P28336)
Sequence of neuromedin B receptor (human) (P28336 whole entry): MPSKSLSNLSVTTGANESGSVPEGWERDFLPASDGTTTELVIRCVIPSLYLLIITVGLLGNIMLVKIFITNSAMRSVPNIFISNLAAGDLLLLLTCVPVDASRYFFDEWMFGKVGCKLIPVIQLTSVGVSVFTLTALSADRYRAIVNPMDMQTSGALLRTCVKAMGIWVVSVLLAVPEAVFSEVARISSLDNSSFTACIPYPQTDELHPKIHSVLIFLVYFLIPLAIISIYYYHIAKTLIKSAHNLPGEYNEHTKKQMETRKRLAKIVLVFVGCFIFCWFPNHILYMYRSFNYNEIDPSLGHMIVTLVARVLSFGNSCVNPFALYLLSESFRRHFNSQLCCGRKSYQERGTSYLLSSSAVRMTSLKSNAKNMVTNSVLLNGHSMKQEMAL

Sequence of human bombesin receptor subtype 3 (human) (P32247 whole entry): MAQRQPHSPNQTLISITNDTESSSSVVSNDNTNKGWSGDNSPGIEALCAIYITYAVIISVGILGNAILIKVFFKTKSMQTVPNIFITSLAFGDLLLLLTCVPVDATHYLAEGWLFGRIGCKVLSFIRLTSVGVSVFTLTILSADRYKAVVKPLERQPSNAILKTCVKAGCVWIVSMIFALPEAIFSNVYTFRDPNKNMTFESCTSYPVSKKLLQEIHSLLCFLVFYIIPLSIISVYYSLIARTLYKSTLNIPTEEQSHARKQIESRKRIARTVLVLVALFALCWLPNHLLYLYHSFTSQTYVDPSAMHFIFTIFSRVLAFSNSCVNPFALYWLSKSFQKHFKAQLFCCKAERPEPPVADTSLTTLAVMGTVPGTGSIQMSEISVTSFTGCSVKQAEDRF

| EC50 of NFAT-luciferase reporter activation in CHO cells expressing hBRS3 [1] [nM] | EC50 of NFAT-luciferase reporter activation in CHO cells expressing hNMBR [2] [nM] | Substance |
| --- | --- | --- |
| 8.8 |  | [D-Phe^6, ß-Ala^11, Phe^13, Nle^14]-Bombesin (6–14) (peptide) |
|  | 0.16 | neuromedin B (peptide) |
